Results reported in the supplement of paper PMC7125110.
± gives the standard error. Fewer inactive variants are shown than the library holds.

B1: glmS ribozyme (parent)
chain: AUAAAAGCGCCAGAACUACAGAAAUGUAGUUGACGAGGAGGAGGUUUAUCGAAUUUUCGGCGGAUGCCUCCAAA

How the values were obtained:
Conditions in all cases: with glucosamine-6-phosphate
[1] = variants of: B1; experiment: self-cleavage kobs at 640 uM GlcN6P; higher = faster cleavage; RNA array
Procedure, shortened: (§1)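 Glucosamine-6-phosphate in HEPES/KCl/Mg(OAc)2 buffer, at 40 μM to 10 mM, was flowed over barcoded ribozyme variants transcribed in situ by E. coli RNA polymerase on sequenced MiSeq chips. Tracking was through a hybridised Cy3 probe at 37 °C. kobs, kcat and KM came from exponential decay fits and weighted Michaelis–Menten fits of normalised per-tile medians.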

[2] = variants of: B1; experiment: self-cleavage kobs at 2500 uM GlcN6P; higher = faster cleavage; RNA array
Procedure, shortened: as §1

[3] = variants of: B1; experiment: self-cleavage kobs at 10000 uM GlcN6P; higher = faster cleavage; RNA array
Procedure, shortened: as §1

| Variant | self-cleavage kobs at 640 uM GlcN6P [1] [s⁻¹] | self-cleavage kobs at 2500 uM GlcN6P [2] [s⁻¹] | self-cleavage kobs at 10000 uM GlcN6P [3] [s⁻¹] |
| --- | --- | --- | --- |
| A12C A33G G37U | < 1e-05 | < 1e-05 |  |
| C11A A33C A39G U45G | < 1e-05 | < 1e-05 |  |
| A48G U54C C67U | < 1e-05 |  |  |
| U54A U55G C67U | 0.000411 ± 0.00015 | 0.000903 ± 0.00028 |  |
| G13C G59U C67A C71U | 5.98e-05 ± 2.4e-05 |  |  |
| G35U U57C | < 1e-05 | < 1e-05 |  |
| C8U A12U A14U G44A C61U | < 1e-05 | < 1e-05 |  |
| G32C A53C G62C | < 1e-05 | < 1e-05 |  |
| C16A G63U U69A | 0.000106 ± 3.1e-05 |  |  |
| C11A U30G C34U C50G | 0.000134 ± 2.8e-05 |  |  |
| G7U G40A G43C | < 1e-05 | < 1e-05 |  |
| G7A C8U U31C A52C | < 1e-05 | < 1e-05 |  |
| G40U G43U U49C | < 1e-05 | < 1e-05 |  |
| G37U G41A G63U A64G | < 1e-05 |  |  |
| U30C G38C A42U | < 1e-05 | < 1e-05 |  |
| G7C G9C G44A | < 1e-05 |  | < 1e-05 |

| Variant | self-cleavage kobs at 640 uM GlcN6P [1] [s⁻¹] | self-cleavage kobs at 2500 uM GlcN6P [2] [s⁻¹] | self-cleavage kobs at 10000 uM GlcN6P [3] [s⁻¹] |
| --- | --- | --- | --- |
| G29U A33C C34A G37A C50U U69G | 0.000251 ± 5.9e-05 |  | 0.000226 ± 4.5e-05 |
| A12C G29C U30G | 0.000163 ± 2.9e-05 | 0.000329 ± 8.6e-05 |  |
| A39U A48U A53C | < 1e-05 |  |  |
| A12U A15U C34G U47A | < 1e-05 |  |  |
| A14C U56A C71U | 0.000174 ± 4.2e-05 | 0.000691 ± 0.00019 |  |
| C34U G38U U46C U56G G60U | < 1e-05 |  |  |
| G32C G44U A64C | < 1e-05 |  | < 1e-05 |
| U30G G37U G40U | < 1e-05 | < 1e-05 |  |
| G41C G44A C70G | 0.00128 ± 0.00037 | 0.00311 ± 0.00077 |  |
| A14U G29C A64G | < 1e-05 |  |  |
| A6U A12G A14U | < 1e-05 |  |  |
| G35A G60U C70G | < 1e-05 | < 1e-05 |  |
| C10A A14C C67U C68A | 0.0002 ± 7e-05 |  |  |
| A15G G44U A52C U69C | < 1e-05 |  |  |
| G7A C8G A14U U65G | < 1e-05 | < 1e-05 | < 1e-05 |
| G35A A39U G51C | < 1e-05 | < 1e-05 |  |
